pKd: −log10 of the molar value. “And” between values parts separate entries of the source, which are not always exact repeats. Equal entries are not always repeated. Where two headings read alike, the source gives them in different places.
Key:
[1] = molecular target: Doc1-122–His6 (DocSTm toxin) (Salmonella typhimurium); test: SPR; Biacore S200; Doc-His6 captured on a Series S NTA chip (200-400 RU); peptide as analyte, single-cycle kinetics, six concentrations (3-fold dilutions), 30 uL/min; 22 C; 10 mM HEPES, 500 mM NaCl, 50 uM EDTA, 0.005% TWEEN 20, pH 8.0; kinetic 1:1 fit
[2] = molecular target: Doc1-122–His6 (DocSTm toxin) (Salmonella typhimurium); test: as above; remark: listed apart in the source
[3] = molecular target: Doc1-122–His6 (DocSTm toxin) (Salmonella typhimurium); test: as above; remark: listed apart in the source
[4] = molecular target: Doc1-122–His6 (DocSTm toxin) (Salmonella typhimurium); test: as above; remark: listed apart in the source
[5] = molecular target: Doc1-122–His6 (DocSTm toxin) (Salmonella typhimurium); test: as above; remark: listed apart in the source
[6] = molecular target: Doc1-122–His6 (DocSTm toxin) (Salmonella typhimurium); test: SPR; Biacore S200; Doc-His6 captured on NTA chip; peptide as analyte, multi-cycle experiments up to 500 nM; 22 C; 10 mM HEPES, 500 mM NaCl, 50 uM EDTA, 0.005% TWEEN 20, pH 8.0; steady-state 1:1 fit
[7] = molecular target: Doc1-122–His6 (DocSTm toxin) (Salmonella typhimurium); test: as above; remark: listed apart in the source
[8] = molecular target: Doc1-122–His6 (DocSTm toxin) (Salmonella typhimurium); test: SPR; Biacore S200; Doc-His6 captured on a Series S NTA chip (200-400 RU); peptide as analyte, single-cycle kinetics, six concentrations (3-fold dilutions), 30 uL/min; 22 C; 10 mM HEPES, 500 mM NaCl, 50 uM EDTA, 0.005% TWEEN 20, pH 8.0; kinetic 1:1 fit; remark: listed apart in the source
[9] = molecular target: Doc1-122–His6 (DocSTm toxin) (Salmonella typhimurium); test: as above; remark: listed apart in the source
[10] = molecular target: Doc1-122–His6 (DocSTm toxin) (Salmonella typhimurium); test: as above; remark: listed apart in the source
[11] = molecular target: Doc1-122–His6 (DocSTm toxin) (Salmonella typhimurium); test: as above; remark: listed apart in the source
[12] = molecular target: Doc1-122–His6 (DocSTm toxin) (Salmonella typhimurium); test: as above; remark: listed apart in the source
[13] = molecular target: Doc1-122–His6 (DocSTm toxin) (Salmonella typhimurium); test: as above; remark: listed apart in the source

peptide 2 (PhdSTm52-73-M52A) gave a pKd [1] of 10.28, a koff [1] of 5.9e-05 s⁻¹ and a kon [1] of 1.14e+06 M⁻¹ s⁻¹. The pKd [2] was 10.28 and 10.32 and 10.26, the koff [2] was 5.44e-05 s⁻¹ and 5.13e-05 s⁻¹ and 7.14e-05 s⁻¹ and the kon [2] was 1.04e+06 M⁻¹ s⁻¹ and 1.07e+06 M⁻¹ s⁻¹ and 1.3e+06 M⁻¹ s⁻¹.
With peptide 3 (PhdSTm52-73-D53A) the koff [1] was 6.5e-05 s⁻¹, the kon [1] was 5.07e+06 M⁻¹ s⁻¹ and the pKd [3] was 10.92 and 10.78 and 11.00. For the same substance, the koff [3] was 6.65e-05 s⁻¹ and 8.25e-05 s⁻¹ and 4.72e-05 s⁻¹ and the kon [3] was 5.48e+06 M⁻¹ s⁻¹ and 4.98e+06 M⁻¹ s⁻¹ and 4.76e+06 M⁻¹ s⁻¹.
Work on peptide 5 (PhdSTm52-73-E55A) yielded a pKd [1] of 10.31, a koff [1] of 7.5e-05 s⁻¹ and a kon [1] of 1.54e+06 M⁻¹ s⁻¹. The pKd [4] was 10.31 and 10.29 and 10.33, the koff [4] was 7.11e-05 s⁻¹ and 7.49e-05 s⁻¹ and 8.02e-05 s⁻¹ and the kon [4] was 1.5e+06 1/(M s) (2×) and 1.7e+06 1/(M s).
For peptide 6 (PhdSTm52-73-F56A), the koff [1] was 0.000843 s⁻¹, the kon [1] was 989000 M⁻¹ s⁻¹ and the pKd [5] was 9.00 and 9.04 and 9.13. For the same substance, the koff [5] was 0.000717 s⁻¹ and 0.000702 s⁻¹ and 0.00111 s⁻¹ and the kon [5] was 714000 M⁻¹ s⁻¹ and 764000 M⁻¹ s⁻¹ and 1.49e+06 M⁻¹ s⁻¹.
With peptide 7 (PhdSTm52-73-I59A) the pKd [6] was 7.70 and the pKd [7] was 7.60 and 7.71 and 7.82.
peptide 8 (PhdSTm52-73-M60A) gave a pKd [1] of 9.26, a koff [1] of 0.00122 s⁻¹ and a kon [1] of 2.22e+06 M⁻¹ s⁻¹. For the same substance, the pKd [8] was 9.17 and 9.21 and 9.31, the koff [8] was 0.000966 s⁻¹ and 0.00091 s⁻¹ and 0.00181 s⁻¹ and the kon [8] was 1.44e+06 M⁻¹ s⁻¹ and 1.49e+06 M⁻¹ s⁻¹ and 3.73e+06 M⁻¹ s⁻¹.
peptide 9 (PhdSTm52-73-V62A) was tested, and the pKd [1] was 9.77, the koff [1] was 0.000388 s⁻¹ and the kon [1] was 2.27e+06 M⁻¹ s⁻¹. The pKd [9] was 9.74 and 9.62 and 9.88, the koff [9] was 0.000329 s⁻¹ and 0.000394 s⁻¹ and 0.000442 s⁻¹ and the kon [9] was 1.8e+06 M⁻¹ s⁻¹ and 1.65e+06 M⁻¹ s⁻¹ and 3.35e+06 M⁻¹ s⁻¹.
peptide 10 (PhdSTm52-73-H63A) was tested, and the pKd [6] was 7.66 and the pKd [7] was 7.91 and 7.88 and 7.40.
peptide 11 (PhdSTm52-73-G64A) was tested, and the pKd [1] was 10.08, the koff [1] was 0.000197 s⁻¹ and the kon [1] was 2.35e+06 M⁻¹ s⁻¹. For the same substance, the pKd [10] was 9.89 and 10.13 and 10.11, the koff [10] was 1.42e-05 s⁻¹ and 2.28e-05 s⁻¹ and 2.23e-05 s⁻¹ and the kon [10] was 1.08e+06 M⁻¹ s⁻¹ and 3.07e+06 M⁻¹ s⁻¹ and 2.9e+06 M⁻¹ s⁻¹.
In the case of peptide 13 (PhdSTm52-73-E66A), the pKd [1] was 10.38, the koff [1] was 0.000112 s⁻¹ and the kon [1] was 2.7e+06 M⁻¹ s⁻¹. For the same substance, the pKd [11] was 10.32 and 10.35 and 10.45, the koff [11] was 7.15e-05 s⁻¹ and 0.000147 s⁻¹ and 0.000118 s⁻¹ and the kon [11] was 1.5e+06 M⁻¹ s⁻¹ and 3.26e+06 M⁻¹ s⁻¹ and 3.35e+06 M⁻¹ s⁻¹.
For peptide 14 (PhdSTm52-73-L67A), the pKd [6] was 7.67 and the pKd [7] was 7.60 and 7.62 and 7.81.
peptide 15 (PhdSTm52-73-R68A) was tested, and the pKd [1] was 9.94, the koff [1] was 0.000185 s⁻¹ and the kon [1] was 1.6e+06 M⁻¹ s⁻¹. The pKd [12] was 9.91 and 9.97 and 9.95, the koff [12] was 0.000244 s⁻¹ and 0.000166 s⁻¹ and 0.000144 s⁻¹ and the kon [12] was 1.95e+06 M⁻¹ s⁻¹ and 1.57e+06 M⁻¹ s⁻¹ and 1.29e+06 M⁻¹ s⁻¹.
Work on peptide 16 (PhdSTm52-73-E69A) yielded a pKd [1] of 10.19, a koff [1] of 0.000136 s⁻¹ and a kon [1] of 2.1e+06 M⁻¹ s⁻¹. The pKd [13] was 10.16 and 10.15 and 10.29, the koff [13] was 0.000151 s⁻¹ and 0.000169 s⁻¹ and 8.97e-05 s⁻¹ and the kon [13] was 2.2e+06 M⁻¹ s⁻¹ and 2.37e+06 M⁻¹ s⁻¹ and 1.73e+06 M⁻¹ s⁻¹.

From article PMC9207808 (ACS Chemical Biology, 2022)
